For two molecules, Kd results are on record in paper PMC11224324, “Structural and functional insights underlying recognition of histidine phosphotransfer protein in fungal phosphorelay systems” (Communications Biology, 2024).

The chains are these.
B2: Histag-Ct_HPt (residues 9-175), labelled with Red-Tris NTA dye (natural protein)
chain: ADRAQDHNNNNTPRNSNYVVEEEEVSEEEEEAIMMPDFGDHVDTSIFGQILEMDEGDDHDFSAPLVLNFFEQAEETFQKMETALNNKDLPELSKLGHFLKGSSATLGFTKIRDSCQLIQQYGHGLNVDGSSEPDEGVCLKKIAEALASARVDTVALHKMMREFFEY
modifications: Red-Tris NTA Dye bound to the Histag

What all share (assay): MST; Histag-Ct_HPt labelled with Red-Tris NTA dye held constant; REC-1 domain in sixteen two-fold dilutions from 1 mM (0.32 mM for REC_hHK6); PBS + 0.05% Tween-20; medium MST power; hyperbolic fit, 1:1 model; mean of two titrations
Settings in all cases: both partners purified

Assay [1] has as its target B2.
The target in assay [2] is T1, REC_(hHK6), REC-1 domain of hybrid histidine kinase hHK6 (group VI, ortholog of Sln1) from Chaetomium … (Chaetomium thermophilum).
T1 construct: REC-1 (receiver) domain of hHK6, CTHT_0050920, group VI hybrid histidine kinase of C. thermophilum (protein ends at residue 1290); also called REC_(hHK6)-BeF; not shown: His6, N-terminal, cleaved

Assay [3] addresses T2, REC_(hHK3), REC-1 domain of hybrid histidine kinase hHK3 (group III, ortholog of Nik1) from Chaetomium … (Chaetomium thermophilum).
T2 construct: REC-1 (receiver) domain of hHK3, CTHT_0053860, group III hybrid histidine kinase of C. thermophilum; not shown: His6, N-terminal, cleaved

B1: REC_(hHK3) N1107A/N1110A, double mutant of the REC-1 domain of hHK3 from Chaetomium thermophilum (domain or fragment)
chain: ENRATPSLADNTRSFEILLAEDAAVAQRLAVKILEKYHHVVTVVGNGEEAVEAVKRKKFDVILMDVQMPVMGGFEATAKIREYEASLPTPQRTPIIALTAHAMMGDREKCLEAQMDEYLSKPLQQANLIQTILKCA
For B1, the Kd in assay [1] stood at 46 ± 0.07 µM.
Regarding B2, the Kd in assay [2] stood at 13 ± 0.04 µM; in assay [3], 28 ± 0.1 µM.

In general, Kd refers to a measure of binding affinity in units of concentration.
